In patent US20240000786A1, “COMPOSITION FOR ENHANCING INTRA-CELLULAR NITRIC OXIDE GENERATION” (INSTITUTE OF LIFE SCIENCES, priority 2020, published 2024):

B1: recombinant Nitric oxide synthase interacting protein (NOSIP) (other)
chain: HMTRHGKNCTAGAVYTYHEKKKDTAASGYGTQNIRLSRDAVKDFDCCCLSLQPCHDPVVTPDGYLYEREAILEYILHQKKEIARQMKAYEKQRGTRREEQKELQRAASQDHVRGFLEKESAIVSRPLNPFTAKALSGTSPDDVQPGPSVGPPSKDKDKVLPSFWIPSLTPEAKATKLEKPSRTVTCPMSGKPLRMSDLTPVHFTPLDSSVDRVGLITRSERYVCAVTRDSLSNATPCAVLRPSGAVVTLECVEKLIRKDMVDPVTGDKLTDRDIIVLQRGGTGFAGSGVKLQAEKSRPVMQALE
notes: It was synthesized by GenScript, cloned in pET22b, expressed in E. coli BL21 (DE3) and purified on Ni-NTA and by gel filtration; A His tag is implied but never described; also called rNOSIP; recombinant NOSIP
B2: recombinant human iNOS oxygenase domain (protein)
chain: HMPRHVRIKNWGSGMTFQDTLHHKAKGILTCRSKSCLGSIMTPKSLTRGPRDKPTPPDELLPQAIEFVNQYYGSFKEAKIEEHLARVEAVTKEIETTGTYQLTGDELIFATKQAWRNAPRCIGRIQWSNLQVFDARSCSTAREMFEHICRHVRYSTNNGNIRSAITVFPQRSDGKHDFRVWNAQLIRYAGYQMPDGSIRGDPANVEFTQLCIDLGWKPKYGRFDVVPLVLQANGRDPELFEIPPDLVLEVAMEHPKYEWFRELELKWYALPAVANMLLEVGGLEFPGCPFNGWYMGTEIGVRDFCDVQRYNILEEVGRRMGLETHKLASLWKDQAVVEINIAVLHSFQKQNVTIMDHHSAAESFMKYMQNEYRSRGGCPADWIWLVPPMSGSITPVFHQEMLNYVLSPFYYYQVEAWKTHVWQDEKLE
B3: iNOS Peptide-2 (18 mer iNOS peptide) (peptide)
peptide: NQYYGSFKEAKIEEHLAR
notes: 18-residue iNOS-derived peptide, synthesized commercially by China peptides; also called PP2; PP-2

Experiments:
[1] = target: T1, recombinant human iNOS oxygenase domain (human, UniProt P35228 82-505); test: SPR, iNOS immobilised, rNOSIP pre-incubated 30 min on ice with small molecule CC6 (inhibitor), 20 C, 1:1 Langmuir fit
T1 construct: It was cloned in pET22b, expressed in E. coli BL21 (DE3) and purified on Ni-NTA and by gel filtration; A His tag is implied but never described; In SPR it was immobilised on a GLC chip by amine coupling; also called riNOS; r iNOS
Procedure: (§1) Four different iNOS peptides were synthesized commercially by China peptides and iNOS peptides were used for molecular interaction studies with immobilized recombinant iNOS purified protein. The iNOS peptides mediated inhibition of rNOSIP and riNOS protein association in Bio-Rad XPR 36 surface plasmon resonance biosensor instrument. […] 250 nM of iNOS peptides was used for inhibition assay with immobilized ligand(recombinant iNOS) in SPR analysis. Similar condition and concentration of small molecules were used for inhibition of recombinant protein association with immobilized ligand. […] The molecular interaction was carried out at 20° C. and kinetic parameters were determined, after fitting the association and dissociation curves to a 1:1 (Langmuir)-binding model. […] The response curves were also recorded on control surfaces. Results were calculated after subtraction of the control values using the ProteOn Manager software.
(§2) The five small molecules bind with NOSIP and inhibit the association of recombinant NOSIP and recombinant iNOS. […] The molecular interaction was carried out at 20° C. and kinetic parameters were determined, after fitting the association and dissociation curves to a 1:1 (Langmuir)-binding model. […] The response curves were also recorded on control surfaces. Results were calculated after subtraction of the control values using the ProteOn Manager software. […]

[2] = target: T1, recombinant human iNOS oxygenase domain; test: SPR, iNOS immobilised; KD ratio against the row rNOSIP + iNOS peptide2 (= 1)
Procedure: as §1, §2

[3] = target: T1, recombinant human iNOS oxygenase domain; test: SPR, iNOS immobilised, rNOSIP pre-incubated 30 min on ice with iNOS peptide 2 (competitor), 20 C, 1:1 Langmuir fit
Procedure: as §1
(§3) The five small molecules bind with NOSIP and inhibit the association of recombinant NOSIP and recombinant iNOS. […] The molecular interaction was carried out at 20° C. and kinetic parameters were determined, after fitting the association and dissociation curves to a 1:1 (Langmuir)-binding model. […] The response curves were also recorded on control surfaces. Results were calculated after subtraction of the control values using the ProteOn Manager software.

[4] = target: T1, recombinant human iNOS oxygenase domain; test: SPR, iNOS immobilised, rNOSIP pre-incubated 30 min on ice with small molecule CC11 (inhibitor), 20 C, 1:1 Langmuir fit
Procedure: as §1, §2

[5] = target: T1, recombinant human iNOS oxygenase domain; test: SPR, iNOS immobilised, rNOSIP with small molecule CC11; KD ratio against the row rNOSIP + iNOS peptide2
Procedure: as §1, §2

[6] = target: T1, recombinant human iNOS oxygenase domain; test: SPR, iNOS immobilised, rNOSIP pre-incubated 30 min on ice with small molecule CC4 (inhibitor), 20 C, 1:1 Langmuir fit
Procedure: as §1, §3

[7] = target: T1, recombinant human iNOS oxygenase domain; test: SPR, iNOS immobilised, rNOSIP with small molecule CC6; KD ratio against the row rNOSIP + iNOS peptide2
Procedure: as §1, §2

[8] = target: T1, recombinant human iNOS oxygenase domain; test: SPR (Bio-Rad ProteOn XPR36), iNOS immobilised on GLC chip by amine coupling, NOSIP as analyte, 20 C, 1:1 Langmuir fit
Procedure: (§4) Four different iNOS peptides were synthesized commercially by China peptides and iNOS peptides were used for molecular interaction studies with immobilized recombinant iNOS purified protein. The iNOS peptides mediated inhibition of rNOSIP and riNOS protein association in Bio-Rad XPR 36 surface plasmon resonance biosensor instrument. […] 250 nM of iNOS peptides was used for inhibition assay with immobilized ligand(recombinant iNOS) in SPR analysis. Similar condition and concentration of small molecules were used for inhibition of recombinant protein association with immobilized ligand. […] The rNOSIP protein was incubated with iNOS derived peptide/small molecules for 30 minutes in ice for inhibition assay before the SPR application in our study. The molecular interaction was carried out at 20° C. and kinetic parameters were determined, after fitting the association and dissociation curves to a 1:1 (Langmuir)-binding model. An activated channel without immobilized ligand was used to evaluate nonspecific binding. The response curves were also recorded on control surfaces. Results were calculated after subtraction of the control values using the ProteOn Manager software.
Manager software was used to fit the data with the Langmuir model describing a 1:1 binding stoichiometry. Ka is the association rate constant, Kd is the dissociation rate constant, and KD is the equilibrium dissociation constant, defined by the Kd/Ka ratio for the analytes—ligand binding.

[9] = target: T1, recombinant human iNOS oxygenase domain; test: SPR, iNOS immobilised, rNOSIP with iNOS peptide 2; this row is the reference of the fold change
[10] = target: T1, recombinant human iNOS oxygenase domain; test: SPR, iNOS immobilised, rNOSIP with small molecule CC13; KD ratio against the row rNOSIP + iNOS peptide2
Procedure: as §1, §2

[11] = target: T1, recombinant human iNOS oxygenase domain; test: SPR, iNOS immobilised, rNOSIP with small molecule CC5; KD ratio against the row rNOSIP + iNOS peptide2
Procedure: as §1, §2

[12] = target: T1, recombinant human iNOS oxygenase domain; test: SPR, iNOS immobilised, rNOSIP with small molecule CC4; KD ratio against the row rNOSIP + iNOS peptide2
Procedure: as §1, §2

[13] = target: T1, recombinant human iNOS oxygenase domain; test: SPR, iNOS immobilised, rNOSIP pre-incubated 30 min on ice with small molecule CC13 (inhibitor), 20 C, 1:1 Langmuir fit
Procedure: as §1, §2

[14] = target: T1, recombinant human iNOS oxygenase domain; test: SPR, NOSIP 1000 nM to 62.5 nM over immobilised iNOS in presence of 250 nM iNOS PP2 (competitor), Kinetic-Langmuir analysis (FIG. 2(b))
Procedure: FIG. 2 depicts inhibition of iNOS-NOSIP protein interaction by iNOS derived peptides. […] These interactions was inhibited in presence of different iNOS peptides (250 nM) viz; PP1—red line, PP2—sky blue line at bottom of graph, PP3—blue line and PP4—green line.
as §4

[15] = target: T1, recombinant human iNOS oxygenase domain; test: SPR, iNOS immobilised, rNOSIP pre-incubated 30 min on ice with small molecule CC5 (inhibitor), 20 C, 1:1 Langmuir fit
Procedure: as §1, §2

[16] = target: T2, recombinant Nitric oxide synthase interacting protein (NOSIP)
T2 chain: B1 chain

[17] = target: B1; test: ITC, 10 µM iNOS peptide in the chamber, 150 µM rNOSIP in syringe, 25 C
Procedure: (§5) The predictions were tested for validation by […] (SPR). […] The other 3 peptides (Peptide-1, SEQ ID No: 25), (Peptide3, SEQ ID No: 27), and (peptide-4, SEQ ID No: 28) were less efficient in inhibiting interaction between iNOS and NOSIP as shown in FIG. 2(a). […] NOSIP and iNOS peptide (PP2) binding was measured by titrating 10 μM iNOS peptide in the chamber with 150 μM rNOSIP in syringe at 25° C. Top panel, raw heating power over time; Bottom panel, fit of integrated injection enthalpy over the mole ratio of the reactants.

[18] = target: B1; test: ITC, 10 µM iNOS peptide in the chamber, 150 µM rNOSIP in syringe, 25 C; ITC, 25 C; 10 µM iNOS peptide in chamber, 150 µM rNOSIP in syringe
Procedure: as §5

[19] = target: B1; test: ITC; this row is the reference of the fold change in Table 1
Procedure: (§6) The 18 mer iNOS peptide (PP2) and small molecules were used for physical association of molecules in calorimetric analysis. The molecular association leads to thermodynamics changes such as Gibb's free energy change (ΔG), entropy change (ΔS), enthalpy change (ΔH) and number of binding sites (N) in interacting solution were investigated by isothermal calorimetry MICROCAL PEQ (Malvern) at 25° C. The sample cell were filled with peptides, small molecules and the reference cell was filled with 25 mM HEPES and 150 mM Sodium chloride, pH=7 and the syringe was filled with NOSIP solution (200 μM). The experiment consisted of multiple injections and each injection contained 1.5 μl of binding solution (recombinant NOSIP solution) with 120 second spacing time between subsequent injections. Sequential titrations were carried out and the sample solution was continuously stirred at 270 rpm by the rotating paddle attached to the syringe needle. Multiple injections of NOSIP made into the sample cell containing interacting solution of peptide and small molecules. The titration curves were analyzed using the analysis software provided with the calorimeter.
The 18 mer iNOS peptide (PP2) and five small molecules were used to analyze physical association in calorimetric analysis. […] The titration curves were analyzed using the analysis software provided with the calorimeter.

[20] = target: B1; test: ITC (MicroCal PEAQ), peptide in cell, rNOSIP in syringe, 25 C
Procedure: as §6
The 18 mer iNOS peptide (PP2) and five small molecules were used to analyze physical association in calorimetric analysis. The molecular association leads to thermodynamics changes such as Gibb's free energy change (ΔG), entropy change (ΔS), enthalpy change (ΔH) and number of binding sites (N) in interacting solution were investigated by isothermal calorimetry MICROCAL PEQ (Malvern) at 25° C. The sample cell were filled with peptides, small molecules and the reference cell was filled with 25 mM HEPES and 150 mM Sodium chloride, pH=7 and the syringe was filled with NOSIP solution (200 μM). The experiment consisted of multiple injections and each injection contained 1.5 μl of binding solution with 120 second spacing time between subsequent injections. Sequential titrations were carried out and the sample solution was continuously stirred at 270 rpm by the rotating paddle attached to the syringe needle. Multiple injections of NOSIP made into the sample cell containing interacting solution of peptide and small molecules. The titration curves were analyzed using the analysis software provided with the calorimeter.

B1
KD (M) in presence of small molecule MCULE-3765839647 (CC6) [1]: 0.000704 M
Fold Change (KD) [2]: 0.00144
KD (M) in presence of iNOS peptide2 [3]: 4.94e-06 M
KD (M) in presence of small molecule MCULE-8094061955 (CC11) [4]: 0.000809 M
Fold Change (KD) [5]: 164
KD (M) in presence of small molecule MCULE-4640800528 (CC4) [6]: 0.00087 M
Fold Change (KD) [7]: 142
Kd [8]: 0.00711 µM
koff [8]: 0.000681 s⁻¹
kon [8]: 95700 M⁻¹ s⁻¹
Fold Change (KD) [9]: 1
Fold Change (KD) [10]: 110
Fold Change (KD) [11]: 119
Fold Change (KD) [12]: 176
KD (M) in presence of small molecule MCULE-8395438746 (CC13) [13]: 0.000543 M
KD in presence of 250 nM iNOS PP2 [14]: 0.495 µM
Ka in presence of 250 nM iNOS PP2 [14]: 5360
Kd in presence of 250 nM iNOS PP2 [14]: 0.00265
KD (M) in presence of small molecule MCULE-8469877005 (CC5) [15]: 0.000588 M

B2
iNOS enzyme activity (nitrite quantified by Griess reaction, L-Arginine substrate) [16]: recombinant NOSIP inhibits enzyme activity of iNOS

B3
-TΔS [17]: 0.459 kcal/mol
N [17]: 0.993
ΔG [17]: -8.61 kcal/mol
ΔH [17]: -9.07 kcal/mol
Kd [18]: 0.493 µM
Fold Change (KD) [19]: 1
-TΔS [20]: -0.1 kcal/mol
Kd [20]: 0.548 µM
ΔG [20]: -8.54 kcal/mol
ΔH [20]: -8.44 kcal/mol
